The DeepSol protein solubility set

Assay: soluble on expression in E. coli; label from the status in PepcDB or PDB records
With “MGSDKIHHHHHHMLSDITVRYKLNNSIKDSRFETEHLAKYHLSFQVNFELFRICIVDGDSNRCLFLEDYTLADIYTTNDLLEQLDILFEDHILIKAGFWKSITVGFKNTQFSLIPEALFEKDYLKEYLTLNTTLDREPDEEYHFYKQRQTEAVNVFATNQRLTSWFNKTYPLKQVRYVHHTASMIEGIMLQKDKNAAEKSVFIQVEQYFLTIIVKQGKKLIFCNSFTFNTSEDFVYFILFVFDQLELNPEKCPVVVFGEITHDSESFSKLYKYIRHLTFGSKPEFVRFGYQFDEVFDHRYFDLYNMHLCQG” the “soluble on expression in E. coli” value was “not soluble”.
In the case of “MEQPKYKRVVLKLSGEALAGKQGFGIQPAVIQSIAKQVKEVVELGVEVAIVVGGGNIWRGKTGSEMGMDRATADYMGMLATVMNALALQDSLEQLGVETRVQTSIEMRQVAEPYIRRRAIRHLEKKRVVIFAAGTGNPYFSTDTTAALRAAEIEADVILMAKNNVDGVYSADPNVDANALKYDELSYLDVIKQGLGVMDSTASSLCMDNNIPLIVFSIMEEGNIKRAVLGENIGTIVRGK”, the “soluble on expression in E. coli” value is reported as “not soluble”.
With “MSLAAELLIATGEYAPWTGEQLPDGGYVNRVVREAFAREGVQVRFAYMPWARALEALRNGNAQASSFWYDDPVKAKEFLYSAPISEHRELLFHRKDVTVPPWRKLRDLRGLRFGATHGYTYTAEFRQLMKQGALNVEEANDDKINLLKMLAGRIELFPLDEFTGWQLLTSDAFPRGAHDLVTTEARPFSIQYGHLLMPRSARNEQLMARFNAGLARLRADGTLERFRLDLYRGSGMGEGHHHHHH” the “soluble on expression in E. coli” value was “soluble”.
In the case of “MSLTASYETIKARLDGTVLSATFNAPPMNLIGPEVVRDLVALLEELAHPTAPRVVIFDSADADFFFPHVDMTKVPEYTAEAAKAGGPGDASLGMLFRKLSQLPAVTIAKLRGRARGAGSEFLLACDMRFASRENAILGQPEVGIGAPPGAGAIQHLTRLLGRGRALEAVLTSSDFDADLAERYGWVNRAVPDAELDEFVAGIAARMSGFPRDALIAAKSAINAISLPAPAEVRADAALFQQLVRGEKVQQRTAELFKQGFQTRGATELDLGDALGHLKAVDEGHHHHHH”, the “soluble on expression in E. coli” value is reported as “soluble”.
With “MAVTAQAARRKERVLCLFDVDGTLTPARQKIDPEVAAFLQKLRSRVQIGVVGGSDYCKIAEQLGDGDEVIEKFDYVFAENGTVQYKHGRLLSKQTIQNHLGEELLQDLINFCLSYMALLRLPKKRGTFIEFRNGMLNISPIGRSCTLEERIEFSELDKKEKIREKFVEALKTEFAGKGLRFSRGGMISFDVFPEGWDKRYCLDSLDQDSFDTIHFFGNETSPGGNDFEIFADPRTVGHSVVSPQDTVQRCREIFFPETAHEA” the “soluble on expression in E. coli” value was “soluble”.
With “DRKMNRKMISIVENDGNGFREVFRYDYERKNFVPDNLKEITSIQLERSRELLGWSRDKLYREIENRLLLIRGLAEKGVYDYDTLARELVKYYTNGD” the “soluble on expression in E. coli” value was “not soluble”.
For “MTNPLNSTAANRSNQPSSDGISDGQITNEEAESLINKKNCSGHKLKEVTDSDTFSDNGKDDSDTKKRFHYHQDQRRMSLTSIVAVESPSSSNAPSRKTIDLGHGSDLIYIQRFLPFQQSWTFFDYLDKHIPWTRPTIRVFGRSCLQPRDTCYVASSGLTALVYSGYRPTSYSWDDFPPLKEILDAIYKVLPGSRFNSLLLNRYKGASDYVAWHADDEKIYGPTPEIASVSFGCERDFVLKKKKDEESSQGKTGDSGPAKKRLKRSSREDQQSLTLKHGSLLVMRGYTQRDWIHSVPKRAKAEGTRINLTFRLVL”, the “soluble on expression in E. coli” value was “not soluble”.
With “EDMKGKIRVYCRLRPLCEKEIIAKERNAIRSVDEFTVEHLWKDDKAKQHMYDRVFDGNATQDDVFEDTKYLVQSAVDGYNVCIFAYGQTGSGKTFTIYGADSNPGLTPRAMSELFRIMKKDSNKFSFSLKAYMVELYQDTLVDLLLPKQAKRLKLDIKKDSKGMVSVENVTVVSISTYEELKTIIQRGSEQRHTTGTLMNEQSSRSHLIVSVIIESTNLQTQAIARGKLSFVDLAGSERVKKSGSAGNQLKEAQSINKSLSALGDVISALSSGNQHIPYRNHKLTMLMSDSLGGNAKTLMFVNISPAESNLDETHNSLTYASRVRSIVNDPSKNVSSKEVARLKKLVSYWKEQAGRKGDDEELEEIQDE” the “soluble on expression in E. coli” value was “soluble”.
For “MGSDKIHHHHHHMRLFSKLFNIRDNTVVERPRSLTGEGIAAKTQTRVAEKISSTPNDTDTVAAPTVDVAALFYSLLFATSHKDTGGIANNLEKRLIGNVESALADPKVIAEKVFKLPHDLIELDKQLANPEVDTEEVIALIKRDPVLSAEVIQLCNAPAFHRGAKDITSLQQAVVILGREQLRRFVSAVKVREVVEIKPIYYRRFGAEVWRHSLQVAYLAAELATEDQDTAFMLGLIHDVGKIAIFQMLLEAFAKAEPGEQPRSWLFRQVMTSKSLILSAVLARSWLLPPLFSRSLAALANPDNMPTEPLPKAIWTANHISECSMLWQAARLKEPQLNELLARIGMDRKTFDPLHEKLILFTR”, the “soluble on expression in E. coli” value was “not soluble”.
In the case of “MSPKSVVITGANRGIGLGLVQEFVKDKNIRHIIATARDVEKATDLKAISDPRVTALQLEVTCDKSMDTFVSKVEEIVGSDGLNLLVNNAGNAVDYPCKAKPNRALFAEQLNVNTTSVVILTQKLMPLLIKASSKVSGDQLSASRAAVVTISSGLASMTDFATGGHAPNAFAYRISKAAINMFGRALANDMKDDHILVASIGPGWVKTDMGGEKALLTVEQSTAELVASFNKLNNSHNGGFFQKDLTPYPF”, the “soluble on expression in E. coli” value is reported as “not soluble”.
With “MSLEMGMNWTHTPLALSALMFAMAAQATPNQATDAVAPEQATGFEHKSLVKAKNWMVTAANPLASEAGASILRQGGNAIDAMVTTQLMLGLVEPQSSGIGGGSFLVYWDAKKKALTTFDGRETAPLNATPELFLDSTGQPMKFYDAVVGGRSVGTPGTVKLLWETHRQYGKLEWARLIEPVAKLAEQGFEVSPRLAALIAEDKERLGRFPATKAYFFDAQGEPLTAGTLLKNPDYAATLRAIAQQGASAFYQGDIAKDIIATVQNAPGNPGVLAQQDFDTYQVKQRAPVCAAYQSYQVCGMGLPSSGGLTVGQILALTEQYDLKGWGAQDVKSWQVLGDASQLAFADRGLYMADQDYVPVPTQGLLDKTYLAERAKLIQPGKALTSAPAGNPPWHHAQLRSPDQSIELPSTSHFNIVDREGNVVSFTTSIENAFGSRLLVRGFLLNNELTDFSFATQSEGRPIANRLEPGKRPRSSMAPTIVLQDNQPYLAIGSPGGSRIIGYVAQAIVAHTQWGMNIQAAINQPHVLNRFGEIELEQGTSAEQFKPALESLGAKVGIKELNSGLHAIRITAQGLEGAADPRREGVAIGEGHHHHHH” the “soluble on expression in E. coli” value was “not soluble”.
With “MQVPQDGEDLAGQPWYHGLLSRQKAEALLQQNGDFLVRASGSRGGNPVISCRWRGSALHFEVFRVALRPRPGRPTALFQLEDEQFPSIPALVHSYMTGRRPLSQATGAVVSRPVTWQGPLRRSFSEDTLMDGPARIEPLRARKWSNSQPADLAHMGRSREDPAGMEASTMPISALPRTSSDPVLLKAPAPLGTVADSLRASDGQLQAKAPTKPPRTPSFELPDASERPPTYCELVPRVPSVQGTSPSQSCPEPEAPWWEAEEDEEEENRCFTRPQAEISFCPHDAPSCLLGPQNRPLEPQVLHTLRGLFLEHHPGSTALHLLLVDCQATGLLGVTRDQRGNMGVSSGLELLTLPHGHHLRLELLERHQTLALAGALAVLGCSGPLEERAAALRGLVELALALRPGAAGDLPGLAAVMGALLMPQVSRLEHTWRQLRRSHTEAALAFEQELKPLMRALDEGAGPCDPGEVALPHVAPMVRLLEGEEVAGPLDESCERLLRTLHGARHMVRDAPKFRKVAAQRLRGFRPNPELREALTTGFVRRLLWGSRGAGAPRAERFEKFQRVLGVLSQRLEPDR” the “soluble on expression in E. coli” value was “soluble”.
In the case of “MMKITDEKAEDVNLSTIKVVKRDGRLVTFDDQKIYDALIKAEQKIHDQVTPLTHQKVQSIVADVNREIAERFTNNVKIYEIQNIVEHTLLSNNEYALAEEYIHYRTQRDFERSKATD”, the “soluble on expression in E. coli” value is reported as “not soluble”.
For “MADSVLKEVNCGRPEKIPKLDKACEGSKSSWKHLKLGNVEDDEYLRQYCLFHYEFHKSEGFTVDWEKYDYMFHIRPLENSPPISDIRTNADVIRDVTLFAIEKHNEAHGSKLVFVEHVSANFKFANGLLCWLTFWATDMASSAPTSQIYQVELWRRGKQFEIPIFRVKPKDEEMDDVEVKPPSPMPYDDYDKPPVVFVRAAPEDGVPFVFDRTGALYDLYRSGL”, the “soluble on expression in E. coli” value was “soluble”.
In the case of “MELPPKVKNILLLDSEGKRVAVKYYSDDWPTNSAQEAFEKSVFTKTQKTNARTEVEVTALENNIVVYKFVQDLHFFVTGGEEENELILASVLEGLFDAVTLLLRSNVDKREALDNLDLIFLSFDEIIDGGIVLETDANVIAGKAGINSTDPNAPLSEQTISQALATAREHLTRSLMK”, the “soluble on expression in E. coli” value is reported as “soluble”.
For “MKIVKDFSPKEYSQKLVNWLSDSCMNYPAEGFVIGLSGGIDSAVAASLAVKTGLPTTALILPSDNNQHQDMQDALELIEMLNIEHYTISIQPAYEAFLASTQSFTNLQNNRQLVIKGNAQARLRMMYLYAYAQQYNRIVIGTDNACEWYMGYFTKFGDGAADILPLVNLKKSQVFELGKYLDVPKNILDKAPSAGLWQGQTDEDEMGVTYQEIDDFLDGKQVSAKALERINFWHNRSHHKRKLALTPNF”, the “soluble on expression in E. coli” value was “soluble”.
In the case of “MSKFNLGIAKAGKTVNNEGAIAYSMSDKEKLVTQVLTSFFNENKFYGDNSQDILNTVRNVIKNEAAFVANLCIFARKEMHLRTISHVLVSELAKSTEGKEYVRRTLNEIIERPDDMTEVLAYYINTYGKPIPNSIKKGLADSFGKFDEYQLAKYNRKNAVKLKDILCLVHPKAKDEIQNDLWKRLLEDRLETPVTWETELSLKGNTKEVWERLIDENRLGYMAMMRNLRNIIKSGASNMDKVYEYLTDEERVLKNKQLPFRYYSAYKVLRNEGIGTSKIYDALEIAIKISTKNIDRLPGKTLIAADVSGSMNFPVSAKSDLTCAEVAVLMLSIANYICEESITMTFDDNLYACNLSTQNGIIANANSIKVNGGGTDITLPLRYLLDKRIFVDRIILLSDNEINAVYTYDTGRDKPKTCQALVERYKKWINPNVWVHAIDMQGYGTQQFKGQNVNIIAGWSERVFDFISSVEQGIDTLIGKISGYYFK”, the “soluble on expression in E. coli” value is reported as “soluble”.
In the case of “MGSDKIHHHHHHMPLYLKNHSYGEYVFDWAWANAYERAGHDYYPKLLSAIPFSPVTGKRLLAQTSEQRALLVSTALAIVRKGNAGAGMSSLHCLFPLEHEAREMERAGMMLRCGVQFHWKNRPGRGYENFEDFLGGMSYSKRKKIRQERRKVQDLGIHFEWLSGNDMDEDRWNFFIDCYNNTYREHHSRPYLNLEFFLRLGKSMPENILLILALQNKKPIGVAFNIHNSHTLYGRYWGAREFVPGLHFETCYYQAIQYCIANGLSLFEGGAQGEHKLARGFLPVRTWSAHWLVHSEFAAAIEGYLERETRDIDRYIHALEESAPFRKDARESE”, the “soluble on expression in E. coli” value is reported as “not soluble”.
In the case of “MFAVRTKFVTKTEVVLRTVYTALEKGLAVIGPTQVAEELGVSKSTAQKMLNELSKAGYGVYVPKKGLVLNERGKMEARAAVRMHRLIECLLADLGVEDFCKEAEKIGMVAGSSLVDALEARYGDREFCPCGKRIPEVKK”, the “soluble on expression in E. coli” value is reported as “not soluble”.
In the case of “MGSSHHHHHHSSENLYFQGHMSDLPRISVAAPRLDGNERDYVLECMDTTWISSVGRFIVEFEKAFADYCGVKHAIACNNGTTALHLALVAMGIGPGDEVIVPSLTYIASANSVTYCGATPVLVDNDPRTFNLDAAKLEALITPRTKAIMPVHLYGQICDMDPILEVARRHNLLVIEDAAEAVGATYRGKKSGSLGDCATFSFFGNKIITTGEGGMITTNDDDLAAKMRLLRGQGMDPNRRYWFPIVGFNYRMTNIQAAIGLAQLERVDEHLAARERVVGWYEQKLARLGNRVTKPHVALTGRHVFWMYTVRLGEGLSTTRDQVIKDLDALGIESRPVFHPMHIMPPYAHLATDDLKIAEACGVDGLNLPTHAGLTEADIDRVIAALDQVLV”, the “soluble on expression in E. coli” value is reported as “soluble”.
